In article PMC9127220 (The Journal of Biological Chemistry, 2022):
Like-named read-outs stand apart in the source and are kept apart here.

B1: MukB (natural protein, Escherichia coli, UniProt P22523 1-1486, looked up)
chain: MIERGKFRSLTLINWNGFFARTFDLDELVTTLSGGNGAGKSTTMAAFVTALIPDLTLLHFRNTTEAGATSGSRDKGLHGKLKAGVCYSMLDTINSRHQRVVVGVRLQQVAGRDRKVDIKPFAIQGLPMSVQPTQLVTETLNERQARVLPLNELKDKLEAMEGVQFKQFNSITDYHSLMFDLGIIARRLRSASDRSKFYRLIEASLYGGISSAITRSLRDYLLPENSGVRKAFQDMEAALRENRMTLEAIRVTQSDRDLFKHLISEATNYVAADYMRHANERRVHLDKALEFRRELHTSRQQLAAEQYKHVDMARELAEHNGAEGDLEADYQAASDHLNLVQTALRQQEKIERYEADLDELQIRLEEQNEVVAEAIERQQENEARAEAAELEVDELKSQLADYQQALDVQQTRAIQYNQAIAALNRAKELCHLPDLTADCAAEWLETFQAKELEATEKMLSLEQKMSMAQTAHSQFEQAYQLVVAINGPLARNEAWDVARELLREGVDQRHLAEQVQPLRMRLSELEQRLREQQEAERLLADFCKRQGKNFDIDELEALHQELEARIASLSDSVSNAREERMALRQEQEQLQSRIQSLMQRAPVWLAAQNSLNQLSEQCGEEFTSSQDVTEYLQQLLEREREAIVERDEVGARKNAVDEEIERLSQPGGSEDQRLNALAERFGGVLLSEIYDDVSLEDAPYFSALYGPSRHAIVVPDLSQVTEHLEGLTDCPEDLYLIEGDPQSFDDSVFSVDELEKAVVVKIADRQWRYSRFPEVPLFGRAARESRIESLHAEREVLSERFATLSFDVQKTQRLHQAFSRFIGSHLAVAFESDPEAEIRQLNSRRVELERALSNHENDNQQQRIQFEQAKEGVTALNRILPRLNLLADDSLADRVDEIRERLDEAQEAARFVQQFGNQLAKLEPIVSVLQSDPEQFEQLKEDYAYSQQMQRDARQQAFALTEVVQRRAHFSYSDSAEMLSGNSDLNEKLRERLEQAEAERTRAREALRGHAAQLSQYNQVLASLKSSYDTKKELLNDLQRELQDIGVRADSGAEERARIRRDELHAQLSNNRSRRNQLEKALTFCEAEMDNLTRKLRKLERDYFEMREQVVTAKAGWCAVMRMVKDNGVERRLHRRELAYLSADDLRSMSDKALGALRLAVADNEHLRDVLRMSEDPKRPERKIQFFVAVYQHLRERIRQDIIRTDDPVEAIEQMEIELSRLTEELTSREQKLAISSRSVANIIRKTIQREQNRIRMLNQGLQNVSFGQVNSVRLNVNVRETHAMLLDVLSEQHEQHQDLFNSNRLTFSEALAKLYQRLNPQIDMGQRTPQTIGEELLDYRNYLEMEVEVNRGSDGWLRAESGALSTGEAIGTGMSILVMVVQSWEDESRRLRGKDISPCRLLFLDEAARLDARSIATLFELCERLQMQLIIAAPENISPEKGTTYKLVRKVFQNTEHVHVVGLRGFAPQLPETLPGTDEAPSQAS

Legend:
cross-linking = target: the molecule itself; test: cross-linking
MukB [1] = target: B1; test: cross-linking
MukB [2] = target: B1; test: cross-linking; remark: listed apart in the source
MukB [3] = target: B1; test: co-purification

## B1
cross-linking
  binding result: binds

B2: ParC subunit of topoisomerase IV (natural protein, Escherichia coli, UniProt P0AFI2 1-752, looked up)
chain: MSDMAERLALHEFTENAYLNYSMYVIMDRALPFIGDGLKPVQRRIVYAMSELGLNASAKFKKSARTVGDVLGKYHPHGDSACYEAMVLMAQPFSYRYPLVDGQGNWGAPDDPKSFAAMRYTESRLSKYSELLLSELGQGTADWVPNFDGTLQEPKMLPARLPNILLNGTTGIAVGMATDIPPHNLREVAQAAIALIDQPKTTLDQLLDIVQGPDYPTEAEIITSRAEIRKIYENGRGSVRMRAVWKKEDGAVVISALPHQVSGARVLEQIAAQMRNKKLPMVDDLRDESDHENPTRLVIVPRSNRVDMDQVMNHLFATTDLEKSYRINLNMIGLDGRPAVKNLLEILSEWLVFRRDTVRRRLNYRLEKVLKRLHILEGLLVAFLNIDEVIEIIRNEDEPKPALMSRFGLTETQAEAILELKLRHLAKLEEMKIRGEQSELEKERDQLQGILASERKMNNLLKKELQADAQAYGDDRRSPLQEREEAKAMSEHDMLPSEPVTIVLSQMGWVRSAKGHDIDAPGLNYKAGDSFKAAVKGKSNQPVVFVDSTGRSYAIDPITLPSARGQGEPLTGKLTLPPGATVDHMLMESDDQKLLMASDAGYGFVCTFNDLVARNRAGKALITLPENAHVMPPVVIEDASDMLLAITQAGRMLMFPVSDLPQLSKGKGNKIINIPSAEAARGEDGLAQLYVLPPQSTLTIHVGKRKIKLRPEELQKVTGERGRRGTLMRGLQRIDRVEIDSPRRASSGDSEE
MukB [1]
  binding result: binds

B3: MukF (natural protein, Escherichia coli, UniProt P60293 1-440, looked up)
chain: MSEFSQTVPELVAWARKNDFSISLPVDRLSFLLAVATLNGERLDGEMSEGELVDAFRHVSDAFEQTSETIGVRANNAINDMVRQRLLNRFTSEQAEGNAIYRLTPLGIGITDYYIRQREFSTLRLSMQLSIVAGELKRAADAAEEGGDEFHWHRNVYAPLKYSVAEIFDSIDLTQRLMDEQQQQVKDDIAQLLNKDWRAAISSCELLLSETSGTLRELQDTLEAAGDKLQANLLRIQDATMTHDDLHFVDRLVFDLQSKLDRIISWGQQSIDLWIGYDRHVHKFIRTAIDMDKNRVFAQRLRQSVQTYFDEPWALTYANADRLLDMRDEEMALRDEEVTGELPEDLEYEEFNEIREQLAAIIEEQLAVYKTRQVPLDLGLVVREYLSQYPRARHFDVARIVIDQAVRLGVAQADFTGLPAKWQPINDYGAKVQAHVIDKY
MukB [2]
  binding result: binds

B4: acyl carrier protein (AcpP) (natural protein, E. coli (endogenous in BL21(DE3)), UniProt P0A6A8 1-78, looked up)
chain: MSTIEERVKKIIGEQLGVKQEEVTNNASFVEDLGADSLDTVELVMALEEEFDTEIPDEEAEKITTVQAAIDYINGHQA
MukB [3]
  stoichiometry N: 1 AcpP:MukB
